According to the domain aggregation screens of Martell et al. (2025):

Assay: soluble fraction after stress (log2 fold change); higher = more stays soluble; pooled small domains, quantitative proteomics
Conditions: stress: 50 degC
How it was run: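 Pooled custom libraries of small protein domains were measured in a high-throughput format, with quantitative proteomics as the read-out. Each library was stressed at 50°C. Aggregation propensity is given as the base-two logarithm of the fold change in how much of each protein stays soluble after the stress. Higher values mean a larger share of the protein remains in solution.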

Sequence | soluble fraction (log2)
HMASVAKHIRRLRTERHMTQGDLAEKLFVTRQTVSAWETGKAQPDLETLERIAVVLGVEVTELIYGAP | -0.0295
HMKIDLPIWLNKKAWEAWVEYKKERKQKLTPSIIKFQLRILEKNKEDHPEIIRNSITNGWTGLFPLK | -1.27
HMTLDDSFYQKADEIIANHTKEERSLIPIIQDIQAEYRYLPPELLTYVAKEIGITDARAYSVASFYENFS | -0.446
HMETKVIVPKVTGMNSKSAINYLSARGLKYKAVPADSGKSFHVVDQYPKSGTKVSPHSTVYLYS | 0.077
HMGRHSPLSIEQKEQLKTEIVALQQQRGGGRVTAVNIAELIQQKFNVVYNPNSLYKLLKQIGMSWV | -1.2
HMNLDVPGIIKRAKQALNLKRDSELAEFLGVSRATVTNWAARNSIDFRLLLDKLGNTVDYNWLLLGKGNPK | -0.221
HMKHEFSEEWLDWIKSNIADGQNKNGLFKVLLNHGYAYDAVREVMQYEPTVPLDELVDPLRA | -0.139
HMQQNYREMHKVKKGETLFGIARRYEITVDQLIKANPDMNAVGYELKKGDYIFIPYPDGQKP | -0.13
HMQATDEEIENFTSSAITAYKLTKEEGYIISMRDMKPIMEIVKTEYPMANGKVVSKVMNNYING | -0.0668
HMQANLPFSELLADVDRGLISDVTIKGDQVSGHYTDGRTFNTFIPPEADLVRRLTEKNVRIAAVPD | -0.111
HMSVFTDIYHQADHETKLMLIHEIKIVGDEKEFRLLKSIIDSTSNDLSKEANDALNAIKIRLALSK | -2.49
HMPPPVERAIRKLGHDLSLARRRRRISQDSMAQRMGASVSTVRRIEKGDPRIPIHFIARAMMILGDLKAL | -0.0422
HMTRTISKVAKELAINIETVRFYERRGLIEQPPKPELGYRHYPDETVNRIRFIKRAQELGFTLEEIANLLS | -1.75
HMRAFTPSEAQVAHARRVMEAFWQHQREGHGAFALDGKMVDAPIVKAAARVLARAGLQDPNHPIHLA | -0.0227
HMHLIPRESTYEIDGRRFVVDSVNLDFGKVSLQDITFRNATGFPIFRSESIEFMRRLVEISEAQRIAEL | -0.00889
HMGAEIRDKVRAALAGLNPRAAEIFVMRYFDGYGNREIARLLNTSWSTIAVTLHRTRAKLQKELK | -0.101
HMESGNLIFTNAPIADVVNAIETRYGKKLQASNQTSDLQFTGIFKNTDEFSTVVKTIEIALGLQFEV | -1.19
HMKAEKEIEKIKFTIYNEFKRKQEENHFLPPWDGTKMLRQFVLGVVANNPKYQHVNTDILYRDLLLLYYQ | -0.968
HMLGSVRTIRQVLDDGRLIVADGGGNPSVIRRSGALAHETFANGQRVIVDPSGRLALELLPD | 0.314
HMTEPIESVTTIAGRRIPYRLVRSLRARRMRMTIKESQVTVTLPRGVPLGEAERFLQQNAAWLFKQLDKP | -2.22
HMKISIPQEYFEIYNVLKQRPMHINEISKILKKPVSEISGTISLMEIEGYITKLTTDQYVLKKI | -0.143
HMMLVKKMLNGIMMKEITIKELADQYDVSTRTIQLKIKKLGYEWDSKESIYRYVGKESEPLDVDFSTLI | -3.29
HMNNLVTRREVEILGWIKEGKTTSDIAGILSLSPFTVKNHVQNILKKLGARSRSHAVAQAINLGLLH | -0.773
HMDKSPVLQLNRDVPAGQQISADDFRTVEIGADGAFRSVPSSDLNAMVGSYAKVRLIAGTLLAREALQSG | 0.0412
HMGDTIFINNNFYVKHIVEFGETIDIISKIYDVSVNKILETNETSTKLYSGQSLFIPININV | -3.4
HMRQSKMREAILAAVSAQKLEISDLHVWRIGEQRYAAIIGLATTQAESVSALRDSLAQMDKLVHLTIDQ | -1.89

Sequence | soluble fraction (log2)
HMAKPVKSPLPGSVIKVAVKVGQQIKRGDLLLTLESMKMENSILAEKDGVVKNIHVQAGQSVMQDDLLLDI | 0.0752
HMKQPVPDEIYFKRLANATEALGRYPRASERKKFGLNMSKRRYPTLTDFINKAIELGYVEDFR | -0.373
HMKAFTKKELQDLVLNIFRASPTTNYNYKQLYKLIRGKDPEIKTLIIAVLLGLEKNGSILQMRPGKYKFS | 0.593
HMKQYVEPASETEKMVVELWEKVLLTEKIGMHDDFFELGGHSLKAMRLISLYHQEFNVRLSLKSLFEKLK | -0.121
HMNNIGSKIKSAKILNNLDDNQLSEITGIDKLQLRSIQDGQVNPTKMELEIISKALKLPTNYFTK | -0.0222
HMPTQGELAILRVLWEQGPSTVRAVWEKLNSQSGTGYTTALKLMQIMAQKGLVSRDESQKTHVYRA | -1.42
HMTELPLTPRSKRILEMSALEARRLNHSYIGTEHLLMAIIRDGDGVAAKILESLGVNLPNFYTDTVRSIE | -0.121
HMVQIVINKEVQTTSQTILRENAGTSSRNIGYVDPNVKLRATLDRNSFYFIPEKKGWIMKSRVKLIEDLS | -3.79
HMKNTLDAYIRYLSNFLSRNNYPEAEDLSFINARADQAYEVFLEARRGGVDVSTAEELAMIALMQGY | -1.13
HMKNDKLLIFMELKGISRTQLSKSTGIPASTLGRIINGDVQKIKAVYMEAIANALDTSIHTIFDV | -1.27
HMDAYLPETVQKLLDVMDFDVPYSAAQLMEKLGLKSRASFRKLYLLPALEKNLIAMGVPDKPTSRNQTYIR | -0.417
HMHTDQVLVMTRAVGQGEIVRNTDVGLTSVAVDRAVTTIPASQLDEIVGRHALVDLSAGQLLGSHSVGA | 0.0253
HMAPEKLVHELVGLSLRAGNLDLLAATLSAHKTVLSKESTAEYVKAGLAIEPNHLPLRVLAEQDLGWS | -0.57
HMGQKMLTIELQEKVNKMPDNLASYDLKLSADGMSLIYKYSLKSERTGITALLQELKNAGLVMRDLKTEQ | -0.0274
HMQILNVFSKHGIKPISPQIGDKFDPQLHEAMFEAPVPGTKAGDIIEVSSEGFMLYDRLLRPAHVGVSSN | 0.0206
HMIMNDIQAKVLEIAETKDLGSITYYRLSKMLGVDHPYRVKYAIDKLIEKGLLTAKSDGSITKAI | -0.601
HMIEEIAVPEILGMQEEEAKAKIEGLGLVFNVTDRVKSNEYEKGEVMYQSVGPDDTTVKSGYPINVTISEG | -0.0543
HMIHANGLTDRQEMILEFIRSYISENNYPPSVREIGKGVGLASSASVHNNMKKLASLGFLNWDTD | -1.25
HMGMTTSILDDVIGMGPKRKKALLKAFGSFGALRNATLEEIKQTHTVPEQVAEDVYAVLVQYNSKSE | -0.233
HMTNSAGIERFLASGAIDGVGPAMARRIVEHFGTEALRIIESVPHRLREISGIGPKTAEKIASSYMRQ | -0.689
HMDWVAYGAELRRRRLLAGWSVAELSRRTNLSTSIIYQVEQARTRLRPSQLTLAKLAAALGMP | -3.15
HMEEPEFEPYVVRLTAIALNVRTGPGTQYPVAMVIRGGGAFTIVAEENGFGLLKSGAGWIMLQHTERV | -0.434
HMTYNEYPEKEMQDLIDKSISQQEQAASQYGYSLGDYVTARYGFQSESDFREYVQGLAEDYMKEKI | -0.198
HMGLVDSLEPLLRRVYEALPQRRSMTTERLAVAAGLDEESVKVALARLQLSAFVGVDERGWHRSL | -1.11
HMVQISNTDDLYPIVQRIVDANPQSVEDYKNGKAKALGFLVGQMMKETKGKANPSMVNDLIIKAIEE | 0.123
HMAQLPADMSRVKSADVSDAQLREFVQKAQASGQTETQLFREFSRRGMPTNEINILRSRMVGLQNN | 0.0388

Sequence | soluble fraction (log2)
HMDLEELSNKMNNVFESLSSDLRDIIIMSDIEGLSYEEISHKINIPIGTVRSRLHRARDLMVRVIKEN | -0.513
HMDRVTYPVSFNGKVRFQLELDAGMNAKEVETAALGHEKTAAQIEGKTIRKVIVVPGRIINIVV | -0.259
HMKMQPVISQGVLYINNVTDVRTIEVFDISGRIVADAAASTTVNIAHLNEGPYIVKVTTVNGIESIKILNK | -0.223
HMDANAYTYKVSEDTDTRTGEKIFLVKVAEKLSRKEYIVVNNYMKSLGSYYSKFKHAFLFKENPTEKL | -0.23
HMQQAVTMQKPGRLLRNADGNGGAVRDLDVGMMLYPTGNRSELMWEVDDELGNRGWVNSTLFGLS | -0.109
HMAVFSKKQIFDTAFALFESKGLEAITARNLGKALSSSPAPIYAHYSSITELKNELISVAKDR | -2.25
HMVDDRPVTGTTLIREWQGRAYEVIVQAGHFEFQGQRYQSLSAIAKVITGTVWNGWAFFGLR | -0.524
HMRQTGWVTADSLNVRARPSLQAERVEKVTYGQQVQIMFKQGQWYQIATENGKIGWVSSEYIAAVSP | -0.0654
HMGAVFEFIMEEEEPERIDKLLSSALPDLSRSYLQKLVKEGAVLVNKKEVKPNHKVNPGDVVEISVPEPE | 0.18
HMGYQLSLEAQSQLKALGLTSEYITRILDEADNRQPIPGTSRTVYSLNGYQVEFSHSDQQVIRIARG | 0.0139
HMDVPNLVGKTLEEAENELKKLNIRYNVTERADEAPKDTVIEQSPKPYEAMEPGTVVNLVISSGPA | 0.533
HMLQPQMKKFLNYESARNKMRPFGLSTRKEWRLFVDEGNRPADIPGDPYKKYKNKGWISWPHFLGK | -1.58
HMQGIPVTVTAERANLRSGPGTSFDKLGQVVQGDVLTLLEVQNDWYKVKTAEGKTAFVAAYLVNSP | 0.0205
HMRPYAYGTGRRKSSTARVHLIPNGSGSITINGRTLDEYFGLETLKLIVRQPLAATETAEKFDVEATVV | -0.415
HMKPTVKVPNVVNLSLRNAQIQLQNYGLEVGSISYESSRFKNAVLRQSISEGSVVEKGTTINLVISDGL | -0.203
HMPLDKDTTLDEIYRRFNMEHPADYKGHSLSMGDIVVFRQDGKQTAYYVDEGADYRQVPEFFVK | 0.0346
HMRVDDITDTILNVLKEQGGFISVTDKSSPETINKLFGVSKKTYKKAIGAIYRKKLIIIEDDGIRLNS | -1.84
HMRKDYTVLYSAVNAEEATEIVSKLQESGVAYQYKDNGDVLVDKKQVDKVRAQLAQEGYPKS | 0.164
HMLTIEEYLTQLKKLMKDRDAATVRDALSDAEEHLRNAMAGEDPSRLDGIIEEYGSPEEIAAAYKIMEEHT | 0.0389
HMPKAMAIMSEIAGTVHIDDTKKSRHVEVTGVDDNGAPVTKSYLIPFGHRLKVMEGDVLVKGALLT | -0.0964
HMKGIHDYITKDGLRVVKVHYSADPDKDVTTVEGKKWMAKALLGYPGGLEGAKWRREMEIDFNA | -0.0848
HMTVPMKILILEDEQRNAMRLIRLLNDIDTTFIIEGPLTNIKEAVDFFQSGKTTDLILADIRL | -0.147
HMDAGLAEIIRSFEDNLGGFPPAAREDLLGWREIFTDDLILLAIKKAALAGVRKWSYVNGILKVWKNEGVR | -0.742
HMLPTVSITGHIFIRSGSPLNRIFVGEKIYHVGDHIDRDWVIESIGIDTLTIRSGTLSTQLPL | -2.87
